Data on 84 variants can be found in the RNAGym collection of RNA variant scans (doi:10.1021/acssynbio.7b00057).

The labels stand for the following.
B1: Pistol ribozyme (parent)
chain: GGGUCGUUGUUCCAUAAUCGCGUGGAUAUGGCACGCAAGUUUCUACCGGGCACCGUAAAUGUCCGACUGGAGCCGUUCGGGCGGCUAUAAACAGACCUCAGGCCCGAAGCGUGGCGGCACCUGCCGCCGGUGGUAAAAAAGAUCGGAAGAGCACACGUCU

The variants in the data set derive from B1. The data set is described as follows: aptazyme ON/OFF ratio, guanine; higher = stronger switching; co-transcriptional cleavage with and without guanine.
Turning to U7G G9A U10G U11C C12U C13G, the “aptazyme ON/OFF ratio” value turned out to be 1.08.
In the case of U7G G9A U10G U11C C12U C13A it was 1.08.
Under U7G G9A U10G U11C C12U C13U stands 1.09.
Consider U7G G9A U11G C12A C13G, for which the “aptazyme ON/OFF ratio” value was found to be 1.07.
In the case of U7G G9A U11G C12A C13U it was 1.07; in that of U7G G9A U11G C12A C13A, 1.06; in that of U7G G9A U10G U11C C13G, 1.11.
Under U7G G9A U10G U11C C13U stands 1.08; under U7G G9A U10G U11C C13A, 1.08; under U7G G9A U10A U11C C12A C13G, 1.1.
In the case of U7G G9A U10A U11C C12A C13U it was 1.21; in that of U7G G9A U10A U11C C12A C13A, 1.13; in that of U7G G9A U10C C12U C13U, 1.19.
With U7G G9A U10C C12U C13A, the “aptazyme ON/OFF ratio” value was 1.18.
In the case of U7G G9A U10C C12U C13G it was 1.15.
For U7G G9A C13A, the “aptazyme ON/OFF ratio” value turned out to be 1.24.
Under U7G G9A C13G stands 1.11; under U7G G9A C13U, 1.49; under U7G G9A U10A U11G C13A, 1.09.
Take U7G G9A U10A U11G C13G: the “aptazyme ON/OFF ratio” value stood at 1.13.
As to U7G G9A U10A U11G C13U, the “aptazyme ON/OFF ratio” value came to 1.14.
Under U7G G9A U10G U11G C13G stands 1.09.
As for U7G G9A U10G U11G C13U, the “aptazyme ON/OFF ratio” value was 1.14.
In the case of U7G G9A U10G U11G C13A it was 1.05.
For the variant U7G G9A U10C U11C C12G C13G, the “aptazyme ON/OFF ratio” value was 1.05.
In the case of U7G G9A U10C U11C C12G C13A it was 1.1; in that of U7G G9A U10C U11C C12G C13U, 1.03; in that of U7C U11G C13U, 1.03.
As to U7C U11G C13A, the “aptazyme ON/OFF ratio” value was determined as 1.06.
For the variant U7C U11G C13G, the “aptazyme ON/OFF ratio” value was 1.03.
Under U7C U11G C12U stands 1.26.
In the case of U7C U11G C12G it was 1.31; in that of U7C U11G C12A, 1.18.
In the case of U7C U11A C12G C13G it was 1.16; in that of U7C U11A C12G C13U, 1.07.
Regarding U7C U11A C12G C13A, the “aptazyme ON/OFF ratio” value worked out at 1.11.
Under U7G C12G C13A stands 1.08; under U7G C12G C13U, 1.17; under U7G C12G C13G, 1.14.
In the case of U7G G9A U10C U11A C12U C13A it was 1.11; in that of U7G G9A U10C U11A C12U C13G, 1.05; in that of U7G G9A U10C U11A C12U C13U, 1.04.
On to U7G G9C C12U C13G, for which the “aptazyme ON/OFF ratio” value was found to be 1.18.
Under U7G G9C C12U C13A stands 1.3; under U7G G9C C12U C13U, 1.33.
Under U7G G9A C12U C13A stands 1.14; under U7G G9A C12U C13U, 1.18.
With U7G G9A C12U C13G, the “aptazyme ON/OFF ratio” value stood at 1.15.
In the case of U7G G9A U10A U11C C12G C13U it was 1.18.
In the case of U7G G9A U10A U11C C12G C13G it was 1.1.
Consider U7G G9A U10A U11C C12G C13A, for which the “aptazyme ON/OFF ratio” value came to 1.1.
Under U7G G9A U11A C12U C13U stands 1.19; under U7G G9A U11A C12U C13G, 1.17; under U7G G9A U11A C12U C13A, 1.16.
As to U7G G9A U10A U11G C12U C13U, the “aptazyme ON/OFF ratio” value came to 1.11.
Under U7G G9A U10A U11G C12U C13A stands 1.07.
Regarding U7G G9A U10A U11G C12U C13G, the “aptazyme ON/OFF ratio” value turned out to be 1.09.
Under U7G G9A U11G C13U stands 1.16; under U7G G9A U11G C13G, 1.1; under U7G G9A U11G C13A, 1.11.
Regarding U7G G9A U10G U11A C12U, the “aptazyme ON/OFF ratio” value came out at 1.07.
U7G G9A U10G U11A C12G: the “aptazyme ON/OFF ratio” value was 1.07.
Turning to U7G G9A U10G U11A C12A, the “aptazyme ON/OFF ratio” value turned out to be 1.09.
In the case of U7G G9A U11A C12A it was 1.12; in that of U7G G9A U11A C12U, 1.41.
Turning to U7G G9A U11A C12G, the “aptazyme ON/OFF ratio” value was determined as 1.21.
Under U7G G9A U10A U11G C12A stands 1.13.
With U7G G9A U10A U11G C12G, the “aptazyme ON/OFF ratio” value came out at 1.13.
In the case of U7G G9A U10A U11G C12U it was 1.24; in that of U7G G9A U10C C13A, 1.11; in that of U7G G9A U10C C13U, 1.44.
As to U7G G9A U10C C13G, the “aptazyme ON/OFF ratio” value amounted to 1.08.
U7G G9A U10A: the “aptazyme ON/OFF ratio” value was found to be 3.3.
In the case of U7G G9A U10G it was 1.19; in that of U7G G9A U10C, 3.35; in that of U7G G9A U10G U11G C12A C13G, 1.09.
Under U7G G9A U10G U11G C12A C13U stands 1.1.
With U7G G9A U10G U11G C12A C13A, the “aptazyme ON/OFF ratio” value came to 1.03.
U7C U11G C12G C13A: the “aptazyme ON/OFF ratio” value came out at 1.14.
In the case of U7C U11G C12G C13U it was 1.15; in that of U7C U11G C12G C13G, 1.27; in that of U7G G9A U10G C12G, 1.09.
For the variant U7G G9A U10G C12A, the “aptazyme ON/OFF ratio” value stood at 1.09.
In the case of U7G G9A U10G C12U it was 1.14.
